Measured values from article PMC7277838.

Target: latency-associated peptide (LAP) of TGFβ1 (human (endogenous in human skin fibroblasts)) (UniProt P01137)

luciferase activity of mink lung TGFβ1 reporter cells given heat-treated (80 °C, 10 min) DOC-insoluble fractions of ML-II fibroblasts: 3 fold
Substance: mature TGFβ1 ligand (from UniProt P01137 279-390)
